In article PMC5665528, “Characterization of the deubiquitination activity and substrate specificity of the chicken ubiquitin-specific protease 1/USP associated factor 1 complex” (PLoS ONE, 2017):

Target: T1, chicken ubiquitin-specific protease 1, chUSP1^GG680,681AA double mutant (full-length control) (chicken, UniProt F1NPR3 1-794, G680A | G681A)
T1 sequence (looked up): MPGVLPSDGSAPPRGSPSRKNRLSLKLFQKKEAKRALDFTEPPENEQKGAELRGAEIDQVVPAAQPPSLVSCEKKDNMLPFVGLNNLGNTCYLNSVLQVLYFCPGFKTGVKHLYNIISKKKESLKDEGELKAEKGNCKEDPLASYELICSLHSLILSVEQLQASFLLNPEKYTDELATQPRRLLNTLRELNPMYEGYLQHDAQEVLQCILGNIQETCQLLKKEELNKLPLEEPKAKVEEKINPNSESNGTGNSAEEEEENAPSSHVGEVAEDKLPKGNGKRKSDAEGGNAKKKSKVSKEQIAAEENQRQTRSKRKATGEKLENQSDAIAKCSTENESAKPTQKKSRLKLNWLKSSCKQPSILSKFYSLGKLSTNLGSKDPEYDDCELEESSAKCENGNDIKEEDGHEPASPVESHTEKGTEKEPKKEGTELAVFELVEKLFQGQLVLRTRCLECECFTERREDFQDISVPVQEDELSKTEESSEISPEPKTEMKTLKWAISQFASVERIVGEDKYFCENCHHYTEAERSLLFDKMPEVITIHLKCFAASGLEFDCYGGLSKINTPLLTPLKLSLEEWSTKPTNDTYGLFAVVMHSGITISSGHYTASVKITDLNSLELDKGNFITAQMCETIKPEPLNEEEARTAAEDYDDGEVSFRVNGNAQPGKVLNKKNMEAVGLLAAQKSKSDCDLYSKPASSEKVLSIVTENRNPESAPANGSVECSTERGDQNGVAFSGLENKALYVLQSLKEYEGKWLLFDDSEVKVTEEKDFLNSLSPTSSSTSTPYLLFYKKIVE
Test: cell-based or functional assay

- KM of chUSP1^FL (hydrolysis of Ub-AMC) in the presence of chUAF1 against chUSP1^FL alone, fold decrease: 2.87 fold
- deubiquitination activity (kcat/KM, hydrolysis of Ub-AMC) of chUSP1^FL/chUAF1 against chUSP1^FL alone: 54 fold
- deubiquitination activity of 125 nM chUSP1^FL (AMC fluorescence from 100 nM Ub-AMC) three minutes after the addition of 125 nM chUAF1, against the control without chUAF1: > 2 fold
- kcat of chUSP1^FL (hydrolysis of Ub-AMC) in the presence of chUAF1 against chUSP1^FL alone: 21 fold
B1: chicken USP associated factor 1, untagged (natural protein)
chain: not shown
